Reference: patent US20240317847A1 (Bayer, published 2024)
One block for each binder: values may come before it.

Tests used:
murine IL-11 [1] = target: T1, murine IL-11 (mouse, UniProt P47873 22-199); assay: SPR 37 C, antibody captured, IL-11 as analyte
T1 construct: Invigate, e.g. lot #C210819-09; biotinylated where coated in the ELISA; also called mIL-11; mIL11
T1 sequence: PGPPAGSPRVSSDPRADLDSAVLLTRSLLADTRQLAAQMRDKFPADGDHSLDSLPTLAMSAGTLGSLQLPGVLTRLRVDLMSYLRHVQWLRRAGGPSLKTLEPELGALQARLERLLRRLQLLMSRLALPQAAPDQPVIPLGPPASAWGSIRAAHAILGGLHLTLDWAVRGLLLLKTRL

cynomolgus IL-11 = target: T2, cynomolgus IL-11 (cynomolgus, UniProt P20808 22-199); assay: SPR 37 C, antibody captured, IL-11 as analyte
T2 construct: Invigate, lot #C290621-19; also called cIL11; cynoL-11
T2 sequence: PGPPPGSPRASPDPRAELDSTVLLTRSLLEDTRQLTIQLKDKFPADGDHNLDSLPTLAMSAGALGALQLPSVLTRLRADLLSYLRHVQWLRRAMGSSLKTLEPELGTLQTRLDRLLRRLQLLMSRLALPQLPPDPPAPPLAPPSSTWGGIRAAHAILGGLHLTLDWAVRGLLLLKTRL

rat IL-11 = target: T3, rat IL-11 (rat, UniProt Q99MF5 22-199); assay: SPR 37 C, antibody captured, IL-11 as analyte
T3 construct: Invigate, e.g. lot #C301019-19; also called rIL11
T3 sequence: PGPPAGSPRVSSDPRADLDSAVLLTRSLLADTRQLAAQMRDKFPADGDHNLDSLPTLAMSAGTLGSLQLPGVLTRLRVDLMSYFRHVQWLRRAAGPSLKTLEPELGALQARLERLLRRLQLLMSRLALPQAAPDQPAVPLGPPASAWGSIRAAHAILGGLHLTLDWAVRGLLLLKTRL

murine IL-11 [2] = target: T1, murine IL-11; assay: cell-based or functional assay
human IL-11 [3] = target: T4, human IL-11 (human, UniProt P20809 22-199); assay: cell-based or functional assay
T4 sequence: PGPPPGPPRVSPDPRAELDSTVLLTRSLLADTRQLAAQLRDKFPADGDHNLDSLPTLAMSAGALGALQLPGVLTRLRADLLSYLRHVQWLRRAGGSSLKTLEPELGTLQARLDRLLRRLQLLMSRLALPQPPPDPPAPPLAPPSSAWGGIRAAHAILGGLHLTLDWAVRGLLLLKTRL

human IL-11 [4] = target: T5, human IL-11 (human, UniProt P20809 22-199); assay: Tri-complex ELISA, hIL-11 + mIL-11Ra-Fc + hgp130-Fc, inhibition of complex formation; Tri-complex ELISA (IL-11/IL-11Ra/gp130 formation)
T5 construct: Invigate recombinant protein; biotinylated when immobilized in the Di-complex ELISA; also called hIL11; hIL-11
T5 sequence: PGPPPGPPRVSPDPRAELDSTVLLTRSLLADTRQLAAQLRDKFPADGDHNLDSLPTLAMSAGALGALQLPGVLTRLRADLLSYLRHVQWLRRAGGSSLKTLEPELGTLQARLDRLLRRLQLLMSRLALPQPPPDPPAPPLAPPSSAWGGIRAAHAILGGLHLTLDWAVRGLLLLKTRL
Procedure: In the Tri-complex ELISA format IL-11 antibodies are tested for their ability to inhibit the formation of a complex consisting of murine or human gp130-Fc fusion protein, with murine or human IL-11, and a murine IL11RA-Fc fusion protein. The assay format was adapted according to FIG. 18 (a, b), depending on whether murine or human IL-11 IgG antibodies were tested.
The assay was performed using High Binding microtiter plates (Greiner, #781077). In a first step, 25 μl of goat anti human IgG (Sigma, #12136), diluted 1:1000 in coating buffer (Candor, #121125) was coated on the plate at 4° C. overnight. Next day, the plate was washed one time with 50 μl PBST and then blocked with 50 μl SmartBlock (Candor, #113125) for one hour at room temperature (RT). […] After three additional washes of the coated and blocked microtiter plate with PBS-T, 25 μl of each mixture were added and the assay plate was incubated for one hour at room temperature. After three additional washes, anti-mouse-gp130 biotinylated antibody (R&D, #BAF468) or anti-human gp130 biotinylated antibody (R&D, #BAF228), both 1:1000 in 10% SmartBlock PBS-T, was added and incubated for 1 hour at RT. After three additional washes, a Streptavidin-Peroxidase conjugate (Sigma, #S5512) 1:1000 in SmartBlock PBS-T was added and incubated for one hour at room temperature. […] Then, the fluorescence was measured with a plate reader at 535/595 nm. […]

murine IL-11 [5] = target: T6, murine IL-11 (mouse, UniProt P47873 22-199); assay: SPR (Biacore), 25 C, antibody captured via anti-Fc, IL-11 as analyte, determined in steady state
T6 construct: Invigate recombinant protein; biotinylated when immobilized in the Di-complex ELISA; also called mIL11; mIL-11
T6 sequence: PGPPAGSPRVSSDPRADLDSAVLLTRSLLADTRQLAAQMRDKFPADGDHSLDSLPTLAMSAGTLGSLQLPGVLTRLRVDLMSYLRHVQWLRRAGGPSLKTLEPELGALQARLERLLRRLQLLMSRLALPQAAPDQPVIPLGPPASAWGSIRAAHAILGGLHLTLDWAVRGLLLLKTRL

Kd (murine IL-11 [1]): 0.41 nM
Kd (cynomolgus IL-11): 5 nM
Kd (rat IL-11): 0.58 nM
RGA Efficacy (%) (murine IL-11 [2]): 93.1%
RGA IC50 (murine IL-11 [2]): 1 nM
RGA Efficacy (%) (human IL-11 [3]): 60.3%
RGA IC50 (human IL-11 [3]): 6.7 nM
B1: TPP-18068 (antibody, mouse IgG1)
heavy: EVQLLESGGGLVQPGGSLRLSCAASGFTFSSYGMHWVRQAPGKGLEWVSVISYDGSYKYYADSVKGRFTISRDNSKNTLYLQMNSLRAEDTAVYYCAAGVPDYWGQGTLVTVSSAKTTPPSVYPLAPGSAAQTNSMVTLGCLVKGYFPEPVTVTWNSGSLSSGVHTFPAVLQSDLYTLSSSVTVPSSTWPSETVTCNVAHPASSTKVDKKIVPRDCGCKPCICTVPEVSSVFIFPPKPKDVLTITLTPKVTCVVVDISKDDPEVQFSWFVDDVEVHTAQTQPREEQFNSTFRSVSELPIMHQDWLNGKEFKCRVNSAAFPAPIEKTISKTKGRPKAPQVYTIPPPKEQMAKDKVSLTCMITDFFPEDITVEWQWNGQPAENYKNTQPIMDTDGSYFVYSKLNVQKSNWEAGNTFTCSVLHEGLHNHHTEKSLSHSPGK
light: QSVLTQPPSASGTPGQRVTISCTGSSSNIGAGYDVHWYQQLPGTAPKLLIYSNNERPSGVPDRFSGSKSGTSASLAISGLRSEDEADYYCAAWDDSLNGPVFGGGTKLTVLGQPKSSPSVTLFPPSSEELETNKATLVCTITDFYPGVVTVDWKVDGTPVTQGMETTQPSKQSNNKYMASSYLTLTARAWERHSSYSCQVTHEGHTVEKSLSRADCS
notes: mIgG1, Lambda

IC50 (human IL-11 [4]): 1700 nM
B2: TPP-18068 (antibody, mouse IgG1)
heavy: EVQLLESGGGLVQPGGSLRLSCAASGFTFSSYGMHWVRQAPGKGLEWVSVISYDGSYKYYADSVKGRFTISRDNSKNTLYLQMNSLRAEDTAVYYCAAGVPDYWGQGTLVTVSSAKTTPPSVYPLAPGSAAQTNSMVTLGCLVKGYFPEPVTVTWNSGSLSSGVHTFPAVLQSDLYTLSSSVTVPSSTWPSETVTCNVAHPASSTKVDKKIVPRDCGCKPCICTVPEVSSVFIFPPKPKDVLTITLTPKVTCVVVDISKDDPEVQFSWFVDDVEVHTAQTQPREEQFNSTFRSVSELPIMHQDWLNGKEFKCRVNSAAFPAPIEKTISKTKGRPKAPQVYTIPPPKEQMAKDKVSLTCMITDFFPEDITVEWQWNGQPAENYKNTQPIMDTDGSYFVYSKLNVQKSNWEAGNTFTCSVLHEGLHNHHTEKSLSHSPGK
light: QSVLTQPPSASGTPGQRVTISCTGSSSNIGAGYDVHWYQQLPGTAPKLLIYSNNERPSGVPDRFSGSKSGTSASLAISGLRSEDEADYYCAAWDDSLNGPVFGGGTKLTVLGQPKSSPSVTLFPPSSEELETNKATLVCTITDFYPGVVTVDWKVDGTPVTQGMETTQPSKQSNNKYMASSYLTLTARAWERHSSYSCQVTHEGHTVEKSLSRADCS
notes: mIgG1, Lambda

Kd (murine IL-11 [5]): 33 nM
B3: TPP-18087 (antibody, mouse IgG1, V domains shown)
VH: EVQLLESGGGLVQPGGSLRLSCAASGFTFSHYDMNWLRQAPGKGLEWVGVISYDGSNKFYADFVKGRFTISRDNSKNTLYLQMNSLRAEDTAVYYCARTPGSHFDYWGQGTLVTVSS
VL: QSVLTQPPSASGTPGQRVTISCSGSSSNIGNNAVNWYQQLPGTAPKLLIYYDDLLPSGVPDRFSGSKSGTSASLAISGLRSEDEADYYCSAWDDSLNGVVFGGGTKLTVLG
notes: mIgG1, Lambda
